This note sets out measurements from the nanobody polyreactivity screen of Harvey et al. (2022).

This series can be described thus: yeast display, Sf9 membrane polyspecificity reagent, FACS + sequencing; frameworks hold sequencing errors. The essentials: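 Polyreactivity labels are assigned by the sorting gate from which each nanobody was recovered. The gates were low and high (top ~1%), set on anti-HA fluorescence for expression and streptavidin fluorescence for reagent binding. Before sorting, galactose-induced (36–48 hours) yeast display cells were stained for 1 hour at 4 °C with 10% biotinylated, detergent-solubilized Sf9 membrane reagent.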
As for “QVQLVESGGGLVQAGCSLRLSCAASGSTFFRYAMGWYRQAPGKERELVAAITSGGNTYYADSVKGRFTISRDNAKITVYLQMNSMKPEDTAVYYCAADVYHWIHEYDYWGQGTQVSVSS”, the “polyreactivity (PSR sort gate)” value is on record as “low polyreactivity”. The entry for “QVQLVESGGGLVQAGCSLRLSCAASGSTFRKYAMGWYRQAPGKEREFVAAITWSTGTTYYADSVKGRFTISRDNAKNTVYLQMNSLKPEDTAVYYFAADSQPPHELYESIEHESWGQGTQVTVSS” is “low polyreactivity”. The same measure for “QVQLVESGGGLVQAGCSLRLSCAASGSTFRSYAMGWYRQAPGKERELVASISGDGDSTYYADSVKGRFTISRDNAKNTVYLQMNSLKPEDTAVYYCNKGLHNGEVDYDYWGQGTQVTVSS”: “low polyreactivity”.

Regarding “QVQLVESGGGLVQAGCSLRLSCAASGSTFWFNGMGWYRQAPGKERELVAVITFSTGSTSYADSVKGRFTISRDDAKNTVYLQMNSLKAEDTAGYYCAAEYVIYYCFEWLDLDYWGQGTQVTVSS”, the “polyreactivity (PSR sort gate)” value is recorded as “high polyreactivity”.

With “QVQLVESGGGLVQAGCSLRLSCAASGYMGWYRQAPGKERELVATISGSGGSTYYADSVKGRFTISRDNAKNTVYLQMNSLKPEDTAVYYCTTEIWGVNRSGYDYWGQGTQVTVSS”, the “polyreactivity (PSR sort gate)” value is listed as “low polyreactivity”. The entry for “QVQLVESGGGLVQAGCSLRLSCAASGYTSRRNVMGWYRQAPGNERELVAAINSAGSTTYADSVKGRFTISRVNAKNTVYLQMNSLKPEDTAVYYCAASVYTYNYDLHKSYYLGQGTQVTVSS” is “high polyreactivity”; for “QVQLVESGGGLVQAGCSLRLSCASSGRTFSEYAMGWYRQAPGKERELVAAISKGGGSTYYADSVKGRCTISRDNAKNTVYLQMNSLKPEDNAVYYCAKSSHAREYYYWGQGTQVTVSS” it is “low polyreactivity”; for “QVQLVESGGGLVQAGCSLRLSCASSGSTFEYYAKGRYRQAPGKERELGAAINGIGGSTTYADSVKGRFTISRDNAKNNVYFQMNSLKPEDTAVYYCNADVARSNSQASAYDYWGQGTQVTVSS” it is “low polyreactivity”.

“QVQLVESGGGLVQAGCSLRLSCDASGSIYKYYSMGWYRQAPGKERELVAAISKNGGSTYYADSVKGRFTISRDNAKYTVYLQMNSLKPEDTAVYYCAAEEGYRWVRYNYWGQGTQVTVSS”: the “polyreactivity (PSR sort gate)” value is given as “high polyreactivity”. The entry for “QVQLVESGGGLVQAGCSLRLSSAASGSIFWVNAMGWYRQAPGQERELVAAITWSAGSTYYADSVKGRFTISRDNAKYTVYVEMNSLKPEDTAVYYCAAGGAWYYWTLDYWGLGTQVTVSS” is “low polyreactivity”. The same measure for “QVQLVESGGGLVQAGCSLRLSSAASGSTFRANAMGWYRQAPGKERELVAAITSGGSTNYADSVKGRFTISRDNAKNTVYLQMNRRKPEDTAVYYCADESYQEHSFYVYYGYDYWGQGTQVTVSS”: “low polyreactivity”; for “QVQLVESGGGLVQAGCSLRLSWAASGRTFFSNAMGWYRQAPGKERELVAAISNGDNTYYADSVKGRFTISRDNAKNTVYLQMNSLKPEDTAVYYCAKDYRWVWRKYGYWGQGTQVTVSS”: “low polyreactivity”; for “QVQLVESGGGLVQAGGCLRLSCAASGFTFKTYAMGWYRQAPGKEREFVAAITTRVGSTYYADSVKGRFSISRDNAKNTVYLQMISLKPEDTAVYYCNYNFNYPYYRYGYWGQGTQVTVSS”: “high polyreactivity”.

On to “QVQLVESGGGLVQAGGCLRLSCAASGSSFGYNGMGWYSQAPGKEREVVAAISSGGNTYYGDSVNGRFTISRDNAKNTVYLQMNSLKPEDTAVYYCNADYVASGYDFDEGYWGQGTQVTVST”, for which the “polyreactivity (PSR sort gate)” value is “low polyreactivity”. As for “QVQLVESGGGLVQAGGCLRLSCDASGITFDYYAMGWYRQAPVKESELVAAITNDGRTYNADSVKGRFTISLDNAKNTVYLQMNSLKPEDTADYYCARLTYYVNGRYDYWGQGTQVTVSS”, the “polyreactivity (PSR sort gate)” value is recorded as “low polyreactivity”. The same measure for “QVQLVESGGGLVQAGGGLRLSCAACGSIFVYYVMGWYRQAPGKERELVAAINSDGDGTYYADSVKGRFTISRDNAKNTVYLQMNSLKPEDTAVYYCNALNPKSYDYWGQGTQVTVSS”: “low polyreactivity”; for “QVQLVESGGGLVQAGGGLRLSCAASGRIFFYAMGWYRQAPGKQRELVAAISWSGGSTYYADSVKGRFTISRDNAKNTVYLQMNSLKPEDTAVYYCAADYEGWGYDYRGDYWGQGTQLTVSS”: “low polyreactivity”; for “QVQLVESGGGLVQAGGGLRLSCAASGRTFYIYAMGWYRQAPGKERELVAAISWRGGSTYYADSVKGRFTISRDNAKNTGYLQMNSLKPEDTAVYYCAKVYARTVGWFNYWGQGTQVTVSS”: “high polyreactivity”. The same measure for “QVQLVESGGGLVQAGGGLRLSCAASGSILPEYAMGWYRQAPGKERELVAAITTSGGSTYYADSVKGRFTISRDNAKNTVYLQMNSLKPEDTAVYYCAVEYLVYLDYTYDYWGQGTQVTVSS”: “low polyreactivity”. The same measure for “QVQLVESGGGLVQAGGGLRLSCAASGTFKRNAMGWYRQAPGKERELVATITRTGSTTYADSVKGRFTISRDNAKNTVYLQMNSLKPEDTAVYYCNRVTKEYGLRQYYYWGQGTQVTVSS”: “low polyreactivity”; for “QVQLVESGGGLVQAGGGLRLSCAASGTFKRNAMGWYRQAPGKERELVATITRTGSTTYADSVKGRFTISRDNAMNTVYLQMYSQKPEDTAVYYCAAGYPPEDPEDYWGQGTQVTVSS”: “low polyreactivity”; for “QVQLVESGGGLVQAGGILRISCAASGRTSYWYAMAWYRQAPGKERELVADISWSGGSTYYADSVKGRFTISRDNAKNTVYLQMNSLNPEDTAVYYCIGAEQKYSIYYAFDTGPYDYWGQGTQVTVSS”: “low polyreactivity”. “QVQLVESGGGLVQAGGILRISCAASGSTFGWYTMGWYRQAPGKERELVAAITSRGTRTSYADSVTGRFTISRDIAKNTVYLQMNSLKTEDTAVYYCAARVFRGLGEYYWGQGTQVTVSS”: the “polyreactivity (PSR sort gate)” value is given as “high polyreactivity”. In the case of “QVQLVESGGGLVQAGGILRLICAASGSTFSTYAMGWYRPAPGKERELVAAIRFSGGTTYYADSVKGRFTISRDNAKNSVYLQMYCLKPEDTAVYYCAAVYISRNFFGRARGDYWGQGTEVTVSS”, the “polyreactivity (PSR sort gate)” value is given as “low polyreactivity”. For the sequence “QVQLVESGGGLVQAGGILRLSCAAAGFIFYRYAMGWYREAPGKEREFVAAISRSGGSTYYADSVKGRFTISRDNAKNTVYLQMNSLKPEDTAVYYCAAGRVTISYFQDRLTTYDYWGQGTQVTVSS”, the “polyreactivity (PSR sort gate)” value is “high polyreactivity”.

As for “QVQLVESGGGLVQAGGILRLSCAASGFIFWDYAMGWYRQAPGTERELVADISDSGGDTYYADSVKGRFTISRDNAKNTVYLQMNSLKPEDTAVYYCAADVELWVFRGQQYDYWGQVTQVTVSS”, the “polyreactivity (PSR sort gate)” value is reported as “low polyreactivity”.

As to “QVQLVESGGGLVQAGGILRLSCAASGFIFYFYAMGWYRQAPGKERELVAAISWSGGSTYYADSVKGRFTISRDNAKINVYLQMNSLKAEDTAVYFCAADLYHKYDYWGQGTQVTVSS”, the “polyreactivity (PSR sort gate)” value is recorded as “low polyreactivity”.

On to “QVQLVESGGGLVQAGGILRLSCAASGFTFGPNTMGWNRQAPGKERELVAAISRSGGSTYYADSVKGRFTISRDNAKNTVYLQMNSLNPEDTAVYYCAAYSPLSGGRMDYWGQGTQVNVSS”, for which the “polyreactivity (PSR sort gate)” value is listed as “high polyreactivity”. The same measure for “QVQLVESGGGLVQAGGILRLSCAASGFTFISNAMGWYRQAPGKERELVAAISSSGGRTYYADSVKGRFTISRDNAKNTVYLQMNRLKPEDTAVYYCNADRSLLYSRKIEYDYWGQGTQVTVSS”: “low polyreactivity”; for “QVQLVESGGGLVQAGGILRLSCAASGFTFLAYAMGWYRQAHGKERELVAAISAYSGRTRYADSVKGRFTISRDNAKNTVYLQMNSLKPEDTAVNYCAARYRGTYRRDYWGQGTQVTVSS”: “high polyreactivity”. The entry for “QVQLVESGGGLVQAGGILRLSCAASGFTFTYYAMGWYIQAPGKERELVAAITRDDSTNYADSVKGRFTISRDNAKNTVYLQMNSLKPEDTAVYYCAADSWYPSYGYWGQGTQVTVSS” is “low polyreactivity”; for “QVQLVESGGGLVQAGGILRLSCAASGIIFDTNAMGWYRQAPGKERELVASISKRGGSTYYADSVKGRFTISRDNAKNTVYFQMNSLKPEDTAVYYCNALRRRLYHDDYWGQGTQVTVSS” it is “high polyreactivity”; for “QVQLVESGGGLVQAGGILRLSCAASGIIFRVNAMGWYRKAPGKERELVAAISGSGGRTYYADSVKGRFTISRDNAKNTVYLQMNSVKPEDTAVYYCAAHLLHYRGDYWGQGTQETVSS” it is “high polyreactivity”. The same measure for “QVQLVESGGGLVQAGGILRLSCAASGIIFVSYDRGWYRQAPGKERELVAAINRGGRTYYADSVKGRFTISRDNAKNTVYLQMNSLKPEDTAVYYCAAQFHFRPFSWTYDYWGQGTQVTVSS”: “high polyreactivity”. With “QVQLVESGGGLVQAGGILRLSCAASGITFRCYAMVWYRQAPGKERELVAAITTGGSTKYADSVKGRFTISRDNAKKSVYLQMNSLKPEDTAVYYCAARGRYAGGYWGQGTQVTVSS”, the “polyreactivity (PSR sort gate)” value was “high polyreactivity”. The entry for “QVQLVESGGGLVQAGGILRLSCAASGITFRYYAMGWYRQAPGKERELVAAITGNGGGTYADSVKGRFTISRDTAKYTGYLQMNSLKPEVTAVNYCSADYGRRWGYDYWGQGTQVTVSS” is “low polyreactivity”; for “QVQLVESGGGLVQAGGILRLSCAASGITFVRNAMGWYRQAPGKDREFVAAINSIVGRTYYADSVKGRFTISRDNAKNTVYLQMNSLKPEDTAVYDCAADSNVRYGMDYWGLGTQVTVSS” it is “low polyreactivity”; for “QVQLVESGGGLVQAGGILRLSCAASGLIFGYYDMGWYRQARGKEREFVAGITYRGSSTYYADSVKGRFTISRDNAKNTVYLQMNSLKPEDTAVYYCAKYKRKKLTTNYYYWGQGTQVTVSS” it is “high polyreactivity”.

Regarding “QVQLVESGGGLVQAGGILRLSCAASGLIFIGYAMGWYRQAPGKERELVASIRGVGSTNYADSVKGRFTISRDNAKNTVYLQMNSLKPEDTAVYYCATSVDRALYTQTRGDYDYWGQGTQVTVSS”, the “polyreactivity (PSR sort gate)” value is reported as “low polyreactivity”.

On to “QVQLVESGGGLVQAGGILRLSCAASGLIFITYAMGWYRQAPGKERELVATITLRGGSTYYADSVKGRFTISRDNAKNTVYLQMNSLKPEDTAVYYCAADVGYWGRSRGYPSDDYDYWGQGTQVTVSS”, for which the “polyreactivity (PSR sort gate)” value is on record as “low polyreactivity”. For “QVQLVESGGGLVQAGGILRLSCAASGNILRFNARGWYRPAPGKEMELVAAISRSGGTTYYADSEKGRFTISRDYAKNTVYLQMNSLKPEDTAVYYCADRYRYGESPGYYWGHGTQVTVSS”, the “polyreactivity (PSR sort gate)” value is listed as “high polyreactivity”.
